Laboratory results reported in patent US20100226910.

Target: Amyloid beta1-42 standard (from β-Amyloid1-42 ELISA, Human kit, Sigma BE0200), P05067
Sequence (P05067 whole entry, looked up, tested part not stated): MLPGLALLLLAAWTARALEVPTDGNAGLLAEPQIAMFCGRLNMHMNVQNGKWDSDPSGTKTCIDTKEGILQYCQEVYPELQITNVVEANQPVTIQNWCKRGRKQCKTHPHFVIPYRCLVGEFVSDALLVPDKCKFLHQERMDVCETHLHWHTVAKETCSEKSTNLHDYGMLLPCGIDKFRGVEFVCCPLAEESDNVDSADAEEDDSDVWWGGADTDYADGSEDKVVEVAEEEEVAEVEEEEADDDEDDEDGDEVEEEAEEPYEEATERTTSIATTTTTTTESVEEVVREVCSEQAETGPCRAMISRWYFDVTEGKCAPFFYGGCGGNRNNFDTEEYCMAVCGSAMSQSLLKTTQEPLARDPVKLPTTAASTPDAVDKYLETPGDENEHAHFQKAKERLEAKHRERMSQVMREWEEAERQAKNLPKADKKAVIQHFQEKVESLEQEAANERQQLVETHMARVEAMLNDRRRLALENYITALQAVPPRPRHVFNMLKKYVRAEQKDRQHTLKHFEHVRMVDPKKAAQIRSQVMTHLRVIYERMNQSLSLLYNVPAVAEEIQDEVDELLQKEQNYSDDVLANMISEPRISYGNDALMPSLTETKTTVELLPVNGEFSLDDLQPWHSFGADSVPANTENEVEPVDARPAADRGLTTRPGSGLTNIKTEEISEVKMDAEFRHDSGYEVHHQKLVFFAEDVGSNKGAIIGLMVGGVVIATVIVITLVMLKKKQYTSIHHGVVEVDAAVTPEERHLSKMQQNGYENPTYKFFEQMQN

B1: Tissue kallikrein (SEQ ID NO:1) (protein)
chain: IIGGRECEKDSHPWQVAIYHYSSFQCGGVLVDPKWVLTAAHCKNDNYQVWLGRHNLFENEVTAQFFGVTADFPHPGFNLSLLKNHTKADGKDYSHDLMLLRLQSPAKITDAVKVLELPTQEPELGSTCQASGWGSIEPGPDDFEFPDEIQCVELTLLQNTFCADAHPDKVTESMLCAGYLPGGKDTCMGDSGGPLICNGMWQGITSWGHTPCGSANKPSIYTKLIFYLDWINDTITENP
  % Cleavage (ELISA of remaining Aβ1-42), KLK1 1 pg/mL, 3 hrs: 0%
  % Cleavage (ELISA of remaining Aβ1-42), KLK1 1 pg/mL, 18 hrs: 0%
  % Cleavage (ELISA of remaining Aβ1-42), KLK1 10 pg/mL, 3 hrs: 0%
  % Cleavage (ELISA of remaining Aβ1-42), KLK1 10 pg/mL, 18 hrs: 15%
  % Cleavage (ELISA of remaining Aβ1-42), KLK1 100 pg/mL, 3 hrs: 0%
  % Cleavage (ELISA of remaining Aβ1-42), KLK1 100 pg/mL, 18 hrs: 19.5%
  % Cleavage (ELISA of remaining Aβ1-42), KLK1 1 ng/mL, 3 hrs: 19.6%
  % Cleavage (ELISA of remaining Aβ1-42), KLK1 1 ng/mL, 18 hrs: 50%
  % Cleavage (ELISA of remaining Aβ1-42), KLK1 10 ng/mL, 3 hrs: 36.6%
  % Cleavage (ELISA of remaining Aβ1-42), KLK1 10 ng/mL, 18 hrs: 88.4%
  % Cleavage (ELISA of remaining Aβ1-42), KLK1 100 ng/mL, 3 hrs: 71.7%
  % Cleavage (ELISA of remaining Aβ1-42), KLK1 100 ng/mL, 18 hrs: 99.8%
  % Cleavage (ELISA of remaining Aβ1-42), KLK1 1 µg/mL, 3 hrs: 92.1%
  % Cleavage (ELISA of remaining Aβ1-42), KLK1 1 µg/mL, 18 hrs: 100%
